# Results taken from article PMC5288196, “Native and engineered tropism of vectors derived from a rare species D adenovirus serotype 43” (Oncotarget, 2016).
# T1: adenovirus serotype 5 virions (human adenovirus serotype 5)
# T1 chain: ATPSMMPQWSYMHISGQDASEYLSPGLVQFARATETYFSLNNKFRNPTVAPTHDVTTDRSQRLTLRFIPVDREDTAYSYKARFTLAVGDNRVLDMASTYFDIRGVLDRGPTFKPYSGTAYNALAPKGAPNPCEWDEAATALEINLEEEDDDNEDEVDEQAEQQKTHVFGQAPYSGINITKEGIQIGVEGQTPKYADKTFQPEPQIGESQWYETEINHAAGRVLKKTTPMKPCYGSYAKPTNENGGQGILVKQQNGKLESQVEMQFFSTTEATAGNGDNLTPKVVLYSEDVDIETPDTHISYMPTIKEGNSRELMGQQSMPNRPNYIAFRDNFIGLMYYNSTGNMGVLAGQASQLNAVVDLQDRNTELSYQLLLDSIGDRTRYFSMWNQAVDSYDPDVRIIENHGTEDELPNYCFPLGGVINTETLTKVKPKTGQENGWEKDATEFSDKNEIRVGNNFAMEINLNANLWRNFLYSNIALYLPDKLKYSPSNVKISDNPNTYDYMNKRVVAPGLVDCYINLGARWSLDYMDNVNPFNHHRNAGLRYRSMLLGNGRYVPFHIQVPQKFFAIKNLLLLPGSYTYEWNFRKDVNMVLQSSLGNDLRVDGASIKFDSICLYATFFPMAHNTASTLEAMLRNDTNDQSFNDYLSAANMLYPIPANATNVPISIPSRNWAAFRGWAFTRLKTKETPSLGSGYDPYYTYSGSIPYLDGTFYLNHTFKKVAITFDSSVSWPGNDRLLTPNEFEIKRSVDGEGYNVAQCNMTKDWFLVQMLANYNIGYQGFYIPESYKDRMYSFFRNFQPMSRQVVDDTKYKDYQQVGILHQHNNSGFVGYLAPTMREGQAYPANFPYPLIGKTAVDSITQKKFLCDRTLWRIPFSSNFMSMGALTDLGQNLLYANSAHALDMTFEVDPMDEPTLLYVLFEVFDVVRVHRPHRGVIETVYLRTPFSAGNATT
# B1: blood coagulation factor X (natural protein)
# chain 1: ANSFLEEMKKGHLERECMEETCSYEEAREVFEDSDKTNEFWNKYKDGDQCETSPCQNQGKCKDGLGEYTCTCLEGFEGKNCELFTRKLCSLDNGDCDQFCHEEQNSVVCSCARGYTLADNGKACIPTGPYPCGKQTLER
# chain 2: SVAQATSSSGEAPDSITWKPYDAADLDPTENPFDLLDFNQTQPERGDNNLTRIVGGQECKDGECPWQALLINEENEGFCGGTILSEFYILTAAHCLYQAKRFKVRVGDRNTEQEEGGEAVHEVEVVIKHNRFTKETYDFDIAVLRLKTPITFRMNVAPACLPERDWAESTLMTQKTGIVSGFGRTHEKGRQSTRLKMLEVPYVDRNSCKLSSSFIITQNMFCAGYDTKQEDACQGDSGGPHVTRFKDTYFVTGIVSWGEGCARKGKYGIYTKVTAFLKWIDRSMKTRGLPKAKSHAPEVITSSPLK
# modifications: Zymogen FX assumed (not FXa): light chain disulfide-linked to heavy chain with the activation peptide retained. Gamma-carboxylated Gla domain, beta-hydroxy-Asp, N-/O-glycosylation; Ca2+-bound state …
# Molecular target: T1, adenovirus serotype 5 virions
# Assay: SPR; Ad virions immobilised on the chip, probed with soluble FX in serial two-fold dilutions from 0.4 to 25 μg/ml, in duplicates
# Details: both partners purified
binder,measurement,value
B1,Kd,1.5 nM
